# Like-named read-outs stand apart in the source and are kept apart here.
# How the values were obtained:
# PTCH2 (Homo sapiens) [1] = biological target: PTCH2 (Homo sapiens) (UniProt Q9Y6C5); conditions: cited from earlier work
# PTCH1 (Homo sapiens) [2] = biological target: PTCH1 (Homo sapiens) (UniProt Q13635); conditions: cited from earlier work
# PTCH2 (Homo sapiens) [3] = biological target: PTCH2 (Homo sapiens) (UniProt Q9Y6C5); conditions: cited from earlier work; remark: listed apart in the source
# PTCH1 (Homo sapiens) [4] = biological target: PTCH1 (Homo sapiens) (UniProt Q13635); conditions: cited from earlier work; remark: listed apart in the source
# PTCH2 (Homo sapiens) [5] = biological target: PTCH2 (Homo sapiens) (UniProt Q9Y6C5); conditions: cited from earlier work; remark: listed apart in the source
# PTCH1 (Homo sapiens) [6] = biological target: PTCH1 (Homo sapiens) (UniProt Q13635); conditions: cited from earlier work; remark: listed apart in the source
# [7] = biological target: recombinant PTCH2 (amino acids 79 to 379; putative loop 1 ligand binding region) (UniProt Q9Y6C5); assay: SPR; Biacore T100; rPTCH2-His immobilised on a nickel chip; rTRP120-TR or rTrx injected at 2-fold dilutions (800nM to 25nM); three independent experiments
# Sequence of recombinant PTCH2 (amino acids 79 to 379; putative loop 1 ligand binding region) (Q9Y6C5 79-379): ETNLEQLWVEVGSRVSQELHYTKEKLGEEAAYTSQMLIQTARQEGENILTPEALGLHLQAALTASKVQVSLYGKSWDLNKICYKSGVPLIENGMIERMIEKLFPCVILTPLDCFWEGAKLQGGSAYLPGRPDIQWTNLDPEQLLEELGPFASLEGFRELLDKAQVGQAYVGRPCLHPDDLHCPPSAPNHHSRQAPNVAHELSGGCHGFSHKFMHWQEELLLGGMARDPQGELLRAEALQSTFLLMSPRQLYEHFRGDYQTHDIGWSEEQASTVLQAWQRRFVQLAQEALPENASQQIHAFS
# Sequence of PTCH1 (Homo sapiens) (Q13635 whole entry, the tested form may be a part): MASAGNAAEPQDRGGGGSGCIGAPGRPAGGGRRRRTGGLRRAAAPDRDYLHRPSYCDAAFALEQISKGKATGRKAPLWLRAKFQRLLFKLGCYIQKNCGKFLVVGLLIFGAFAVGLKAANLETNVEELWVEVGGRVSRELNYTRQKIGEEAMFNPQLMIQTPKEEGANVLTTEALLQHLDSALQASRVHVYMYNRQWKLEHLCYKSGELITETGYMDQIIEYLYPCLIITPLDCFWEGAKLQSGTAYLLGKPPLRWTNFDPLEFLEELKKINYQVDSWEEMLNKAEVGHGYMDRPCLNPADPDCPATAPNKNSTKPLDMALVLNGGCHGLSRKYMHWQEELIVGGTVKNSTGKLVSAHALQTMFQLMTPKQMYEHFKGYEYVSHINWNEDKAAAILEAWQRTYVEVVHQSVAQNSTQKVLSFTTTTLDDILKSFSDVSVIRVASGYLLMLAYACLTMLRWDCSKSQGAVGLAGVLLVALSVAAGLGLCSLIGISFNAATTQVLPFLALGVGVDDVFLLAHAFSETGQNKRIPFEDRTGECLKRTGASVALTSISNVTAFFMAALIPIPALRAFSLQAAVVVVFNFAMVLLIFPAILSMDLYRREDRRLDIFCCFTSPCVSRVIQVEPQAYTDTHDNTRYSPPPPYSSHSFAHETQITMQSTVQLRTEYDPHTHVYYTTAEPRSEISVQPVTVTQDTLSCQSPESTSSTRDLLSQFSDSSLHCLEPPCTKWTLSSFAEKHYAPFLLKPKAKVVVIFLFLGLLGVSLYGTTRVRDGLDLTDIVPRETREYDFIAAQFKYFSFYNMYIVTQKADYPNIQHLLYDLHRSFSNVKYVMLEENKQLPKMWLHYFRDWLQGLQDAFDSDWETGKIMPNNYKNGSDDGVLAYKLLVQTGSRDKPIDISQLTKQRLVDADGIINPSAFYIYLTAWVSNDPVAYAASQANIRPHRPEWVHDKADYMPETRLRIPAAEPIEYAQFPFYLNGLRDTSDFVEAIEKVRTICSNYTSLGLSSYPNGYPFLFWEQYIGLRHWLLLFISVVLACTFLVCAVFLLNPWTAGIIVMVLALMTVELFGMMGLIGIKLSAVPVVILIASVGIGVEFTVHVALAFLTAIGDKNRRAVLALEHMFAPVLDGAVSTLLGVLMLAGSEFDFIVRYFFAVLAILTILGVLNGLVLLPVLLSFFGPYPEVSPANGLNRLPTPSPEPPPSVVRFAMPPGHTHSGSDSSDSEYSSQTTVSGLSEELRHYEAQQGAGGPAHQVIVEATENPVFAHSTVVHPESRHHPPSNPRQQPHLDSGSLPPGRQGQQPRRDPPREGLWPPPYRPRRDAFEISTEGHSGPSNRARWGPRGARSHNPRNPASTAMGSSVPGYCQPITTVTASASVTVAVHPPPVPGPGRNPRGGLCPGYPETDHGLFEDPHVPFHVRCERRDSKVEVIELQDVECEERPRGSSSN
# Sequence of PTCH2 (Homo sapiens) (Q9Y6C5 whole entry): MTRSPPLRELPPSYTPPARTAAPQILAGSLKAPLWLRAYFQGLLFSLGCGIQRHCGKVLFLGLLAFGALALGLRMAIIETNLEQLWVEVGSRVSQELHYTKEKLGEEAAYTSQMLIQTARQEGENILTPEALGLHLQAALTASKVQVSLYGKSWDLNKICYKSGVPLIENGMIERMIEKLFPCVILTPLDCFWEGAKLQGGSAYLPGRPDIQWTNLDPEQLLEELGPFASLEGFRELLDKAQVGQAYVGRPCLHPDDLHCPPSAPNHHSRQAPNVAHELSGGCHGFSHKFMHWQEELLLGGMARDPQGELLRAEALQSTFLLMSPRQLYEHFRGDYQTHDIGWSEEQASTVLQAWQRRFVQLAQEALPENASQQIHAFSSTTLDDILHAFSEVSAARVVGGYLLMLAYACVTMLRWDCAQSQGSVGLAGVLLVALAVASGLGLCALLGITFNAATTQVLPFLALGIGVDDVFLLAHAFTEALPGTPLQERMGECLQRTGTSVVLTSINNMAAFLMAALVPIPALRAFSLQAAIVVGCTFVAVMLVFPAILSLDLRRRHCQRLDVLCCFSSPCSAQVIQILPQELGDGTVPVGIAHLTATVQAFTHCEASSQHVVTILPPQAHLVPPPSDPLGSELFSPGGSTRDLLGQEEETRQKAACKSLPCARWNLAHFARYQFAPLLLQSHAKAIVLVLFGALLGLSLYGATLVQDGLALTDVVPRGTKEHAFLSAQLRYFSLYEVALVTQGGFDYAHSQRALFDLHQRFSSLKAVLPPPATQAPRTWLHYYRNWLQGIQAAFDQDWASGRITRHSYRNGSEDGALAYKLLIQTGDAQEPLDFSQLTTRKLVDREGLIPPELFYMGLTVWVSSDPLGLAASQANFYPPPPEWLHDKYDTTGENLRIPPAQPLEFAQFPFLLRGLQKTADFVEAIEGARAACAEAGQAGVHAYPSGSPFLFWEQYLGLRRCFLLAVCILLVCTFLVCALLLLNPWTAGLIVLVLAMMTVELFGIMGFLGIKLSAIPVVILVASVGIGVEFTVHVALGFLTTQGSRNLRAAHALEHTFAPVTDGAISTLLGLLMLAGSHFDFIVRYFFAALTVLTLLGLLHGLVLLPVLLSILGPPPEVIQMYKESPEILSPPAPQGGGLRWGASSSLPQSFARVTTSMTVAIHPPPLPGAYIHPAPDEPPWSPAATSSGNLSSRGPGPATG
# Sequence of Ihh (Q14623 28-202): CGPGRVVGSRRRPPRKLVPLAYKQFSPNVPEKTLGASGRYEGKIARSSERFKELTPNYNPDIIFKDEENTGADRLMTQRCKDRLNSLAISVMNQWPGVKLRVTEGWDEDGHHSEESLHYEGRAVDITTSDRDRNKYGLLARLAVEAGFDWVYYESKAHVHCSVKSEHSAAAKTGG
substance,measurement,setting,value
Dhh (from UniProt O43323),Kd,PTCH2 (Homo sapiens) [1],0.6 nM
same,Kd,PTCH1 (Homo sapiens) [2],2.6 nM
Ihh (from UniProt Q14623),Kd,PTCH2 (Homo sapiens) [3],0.4 nM
same,Kd,PTCH1 (Homo sapiens) [4],1 nM
Shh (from UniProt Q15465),Kd,PTCH2 (Homo sapiens) [5],1.8 nM
same,Kd,PTCH1 (Homo sapiens) [6],1 nM
recombinant TRP120 tandem repeat domain (rTRP120-TR) (domain or fragment),Kd,[7],4.4 nM
